In patent US20210403591A1 (OSSIANIX, published 2021):
Like-named read-outs stand apart in the source and are kept apart here.

Columns and labels:
Assay in all cases: SPR, His-captured TfR1
[1] = molecular target: T1, recombinant mouse TfR-1, His-tagged (Sino Biological 50741-M07H) (mouse, UniProt Q62351 89-763)
T1 construct: bought; His-tagged; also called mTfR1; mTfR-1
Description: (§1) Detailed binding kinetic analyses were performed to gain a better understanding of the relationship between affinity and brain penetration of the Clone C variants. Biacore surface plasmon resonance (SPR) analysis using immobilised mouse and human TfR-1 was performed for selected clones (Table 2).
(§2) Binding kinetics of VNAR-Fcs was determined by surface plasmon resonance (Biacore T200, GE Healthcare). CMS chips were coated with anti-His antibodies (His Capture Kit, GE Healthcare) as recommended by the manufacturer and human or mouse his-tagged TfR1 (SinoBiological) at 10 ug/mL in HBS-EP+ (GE Healthcare) was captured at flow rate 10 ul/min (contact time 120 s). […] A flow cell without TfR1 captured served as a reference. Sensorgrams were fitted and kinetic constants were determined using Biacore T200 Evaluation software. Chips were regenerated in 10 mM Glycine-HCl, pH 1.5 (contact time: 120 s at flow rate 30 ul/min).

[2] = molecular target: T2, recombinant human TfR-1, His-tagged (Sino Biological 11020-H07H) (human, UniProt P02786 89-760)
T2 construct: bought; His-tagged; also called hTfR1; hTfR-1
T2 sequence (P02786 89-760 limits assumed): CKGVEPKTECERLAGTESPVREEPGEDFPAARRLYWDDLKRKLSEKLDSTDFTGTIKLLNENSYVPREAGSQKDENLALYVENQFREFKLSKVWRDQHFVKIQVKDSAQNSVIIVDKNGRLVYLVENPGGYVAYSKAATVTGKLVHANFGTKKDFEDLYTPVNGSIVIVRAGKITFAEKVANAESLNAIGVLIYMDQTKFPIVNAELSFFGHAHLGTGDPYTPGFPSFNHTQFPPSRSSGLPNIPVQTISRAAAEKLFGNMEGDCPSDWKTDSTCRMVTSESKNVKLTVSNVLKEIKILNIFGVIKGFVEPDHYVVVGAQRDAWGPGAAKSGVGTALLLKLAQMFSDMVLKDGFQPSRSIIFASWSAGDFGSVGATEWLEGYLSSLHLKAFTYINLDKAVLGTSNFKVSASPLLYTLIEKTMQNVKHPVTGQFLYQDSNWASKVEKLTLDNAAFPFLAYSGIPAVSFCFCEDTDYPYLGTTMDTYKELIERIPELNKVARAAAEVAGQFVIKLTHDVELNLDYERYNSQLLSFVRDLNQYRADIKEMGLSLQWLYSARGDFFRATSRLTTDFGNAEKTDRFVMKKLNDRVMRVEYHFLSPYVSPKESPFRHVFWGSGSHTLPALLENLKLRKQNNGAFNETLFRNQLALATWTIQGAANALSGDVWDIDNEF
Description: as §1, §2

[3] = molecular target: T1, recombinant mouse TfR-1, His-tagged …; remark: listed apart in the source
Description: Detailed binding kinetic analyses were performed to gain a better understanding of the relationship between affinity and brain penetration of the Clone H variants. Biacore surface plasmon resonance (SPR) analysis using immobilized mouse and human TfR-1 was performed for the clones (Table 5).
as §2

T1 sequence (Q62351 89-763 limits assumed, stated change not applied): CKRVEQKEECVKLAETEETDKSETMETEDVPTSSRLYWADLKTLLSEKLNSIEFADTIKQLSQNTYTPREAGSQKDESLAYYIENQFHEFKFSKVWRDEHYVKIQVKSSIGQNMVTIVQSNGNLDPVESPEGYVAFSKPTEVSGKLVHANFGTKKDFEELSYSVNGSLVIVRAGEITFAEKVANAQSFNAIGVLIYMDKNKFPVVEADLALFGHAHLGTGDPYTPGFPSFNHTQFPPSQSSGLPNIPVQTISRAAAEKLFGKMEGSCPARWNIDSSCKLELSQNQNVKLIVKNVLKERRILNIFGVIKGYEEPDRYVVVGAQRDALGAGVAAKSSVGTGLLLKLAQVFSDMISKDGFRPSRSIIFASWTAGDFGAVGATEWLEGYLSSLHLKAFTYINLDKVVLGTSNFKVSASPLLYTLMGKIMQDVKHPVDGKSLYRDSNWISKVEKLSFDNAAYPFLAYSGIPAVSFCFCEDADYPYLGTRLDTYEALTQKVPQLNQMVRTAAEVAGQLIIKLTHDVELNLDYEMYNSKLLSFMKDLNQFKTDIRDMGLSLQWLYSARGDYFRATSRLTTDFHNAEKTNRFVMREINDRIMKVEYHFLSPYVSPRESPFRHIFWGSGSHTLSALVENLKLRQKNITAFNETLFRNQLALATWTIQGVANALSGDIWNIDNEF

| Kd [1] | koff [1] | kon [1] | Kd [2] | koff [2] | kon [2] | Kd [3] | koff [3] | kon [3] | Binder |
| --- | --- | --- | --- | --- | --- | --- | --- | --- | --- |
| 1.45 nM | 0.000154 s⁻¹ | 106000 M⁻¹ s⁻¹ | 2.79 nM | 0.000322 s⁻¹ | 115000 M⁻¹ s⁻¹ |  |  |  | Clone C variant 1 VNAR-hFc (Fc fusion, not shown: a dimerising Fc or GST) ARVDQTPQTITKETGESLTINCVLRDSNCALSSTYWYRKKSGSTNEENISKGGRYVETVNSGSKSFSLRINDLTVEDSGTYRCNVAQRPSYNNYFWCDVYGDGTAVTVN |
|  |  |  | 2.19 nM | 0.000194 s⁻¹ | 88800 M⁻¹ s⁻¹ |  |  |  | Clone C variant 24 VNAR-hFc (Fc fusion, not shown: a dimerising Fc or GST) ARVDQTPQTITKETGESLTINCVLRDSNCALSSTYWYRKKSGSTNEENISKGGRYVETVNSGSKSFSLRINDLTVEDSGTYRCNVVQYPSWDNYFWCDVYGDGTAVTVN |
| 0.715 nM | 0.000128 s⁻¹ | 179000 M⁻¹ s⁻¹ | 0.699 nM | 0.000142 s⁻¹ | 203000 M⁻¹ s⁻¹ |  |  |  | Clone C variant 12 VNAR-hFc (Fc fusion, not shown: a dimerising Fc or GST) ARVDQTPQTITKETGESLTINCVLRDSNCALSSTYWYRKKSGSTNEENISKGGRYVETVNSGSKSFSLRINDLTVEDSGTYRCNVVQYPQQDNPFWCDVYGDGTAVTVN |
|  |  |  | 1.36 nM | 0.000432 s⁻¹ | 317000 M⁻¹ s⁻¹ |  |  |  | Clone C variant 23 VNAR-hFc (Fc fusion, not shown: a dimerising Fc or GST) ARVDQTPQTITKETGESLTINCVLRDSNCALSSTYWYRKKSGSTNEENISKGGRYVETVNSGSKSFSLRINDLTVEDSGTYRCNVVQYPSQQNYFWCDVYGDGTAVTVN |
|  |  |  | 17.1 nM | 0.000569 s⁻¹ | 33300 M⁻¹ s⁻¹ |  |  |  | Clone C variant 25 VNAR-hFc (Fc fusion, not shown: a dimerising Fc or GST) ARVDQTPQTITKETGESLTINCVLRDSNCALSSTYWYRKKSGSTNEENISKGGRYVETVNSGSKSFSLRINDLTVEDSGTYRCNVVQYPSYDNPFWCDVYGDGTAVTVN |
| 9.65 nM | 0.000144 s⁻¹ | 14900 M⁻¹ s⁻¹ | 49.4 nM | 0.000677 s⁻¹ | 13700 M⁻¹ s⁻¹ |  |  |  | Clone C variant 2 VNAR-hFc (Fc fusion, not shown: a dimerising Fc or GST) ARVDQTPQTITKETGESLTINCVLRDSNCALSSTYWYRKKSGSTNEENISKGGRYVETVNSGSKSFSLRINDLTVEDSGTYRCNVLQRPSYNNYFWCDVYGDGTAVTVN |
|  |  |  | 4.58 nM | 0.000437 s⁻¹ | 95500 M⁻¹ s⁻¹ |  |  |  | Clone C variant 21 VNAR-hFc (Fc fusion, not shown: a dimerising Fc or GST) ARVDQTPQTITKETGESLTINCVLRDSNCALSSTYWYRKKSGSTNEENISKGGRYVETVNSGSKSFSLRINDLTVEDSGTYRCNVVQYPSIFNYFWCDVYGDGTAVTVN |
| 2.34 nM | 8.76e-05 s⁻¹ | 37400 M⁻¹ s⁻¹ | 9.21 nM | 0.000325 s⁻¹ | 35200 M⁻¹ s⁻¹ |  |  |  | Clone C variant 4 VNAR-hFc (Fc fusion, not shown: a dimerising Fc or GST) ARVDQTPQTITKETGESLTINCVLRDSNCALSSTYWYRKKSGSTNEENISKGGRYVETVNSGSKSFSLRINDLTVEDSGTYRCNVVQRPSYNNYFWCDVYGDGTAVTVN |
| 2.43 nM | 9.32e-05 s⁻¹ | 38300 M⁻¹ s⁻¹ | 26.5 nM | 0.000754 s⁻¹ | 28500 M⁻¹ s⁻¹ |  |  |  | Clone C variant 9 VNAR-hFc (Fc fusion, not shown: a dimerising Fc or GST) ARVDQTPQTITKETGESLTINCVLRDSNCALSSTYWYRKKSGSTNEENISKGGRYVETVNSGSKSFSLRINDLTVEDSGTYRCNVVQWPTLSSPFWCDVYGDGTAVTVN |
| 2.06 nM | 0.000103 s⁻¹ | 50100 M⁻¹ s⁻¹ | 5.61 nM | 0.000291 s⁻¹ | 51900 M⁻¹ s⁻¹ |  |  |  | Clone C variant 20 VNAR-hFc (Fc fusion, not shown: a dimerising Fc or GST) ARVDQTPQTITKETGESLTINCVLRDSNCALSSTYWYRKKSGSTNEENISKGGRYVETVNSGSKSFSLRINDLTVEDSGTYRCNVVQYPSHNNYFWCDVYGDGTAVTVN |
| 0.207 nM | 3.72e-05 s⁻¹ | 180000 M⁻¹ s⁻¹ | 0.439 nM | 8.13e-05 s⁻¹ | 185000 M⁻¹ s⁻¹ |  |  |  | Clone C variant 17 VNAR-hFc (Fc fusion, not shown: a dimerising Fc or GST) ARVDQTPQTITKETGESLTINCVLRDSNCALSSTYWYRKKSGSTNEENISKGGRYVETVNSGSKSFSLRINDLTVEDSGTYRCNVVQYPQYDNYFWCDVYGDGTAVTVN |
|  |  |  | 19.3 nM | 0.000955 s⁻¹ | 49500 M⁻¹ s⁻¹ |  |  |  | Clone C variant 6 VNAR-hFc (Fc fusion, not shown: a dimerising Fc or GST) ARVDQTPQTITKETGESLTINCVLRDSNCALSSTYWYRKKSGSTNEENISKGGRYVETVNSGSKSFSLRINDLTVEDSGTYRCNVVQWPSIQSPFWCDVYGDGTAVTVN |
|  |  |  |  |  |  | 11 nM | 0.000369 s⁻¹ | 33700 M⁻¹ s⁻¹ | Clone H variant 5 VNAR-hFc (Fc fusion, not shown: a dimerising Fc or GST) ARVDQTPQTITKETGESLTINCVLRDSNCELSSTYWYRKKSGSTNEESISKGGRYVETVNSGSKSFSLRINDLVVEDSGTYRCNVQQFPNRWNGRYWCDVYGGGTAVTVNA |

The next lines start with the binder.

| Binder | Kd [1] | koff [1] | kon [1] | Kd [2] | koff [2] | kon [2] | Kd [3] | koff [3] | kon [3] |
| --- | --- | --- | --- | --- | --- | --- | --- | --- | --- |
| Clone C variant 15 VNAR-hFc (Fc fusion, not shown: a dimerising Fc or GST) ARVDQTPQTITKETGESLTINCVLRDSNCALSSTYWYRKKSGSTNEENISKGGRYVETVNSGSKSFSLRINDLTVEDSGTYRCNVVQYPQQPNYFWCDVYGDGTAVTVN | 0.0902 nM | 2.52e-05 s⁻¹ | 279000 M⁻¹ s⁻¹ | 0.248 nM | 5.78e-05 s⁻¹ | 233000 M⁻¹ s⁻¹ |  |  |  |
| Clone C variant 19 VNAR-hFc (Fc fusion, not shown: a dimerising Fc or GST) ARVDQTPQTITKETGESLTINCVLRDSNCALSSTYWYRKKSGSTNEENISKGGRYVETVNSGSKSFSLRINDLTVEDSGTYRCNVVQYPRTNNYFWCDVYGDGTAVTVN | 1.33 nM | 0.000287 s⁻¹ | 216000 M⁻¹ s⁻¹ | 0.454 nM | 0.000109 s⁻¹ | 239000 M⁻¹ s⁻¹ |  |  |  |
| Clone C variant 8 VNAR-hFc (Fc fusion, not shown: a dimerising Fc or GST) ARVDQTPQTITKETGESLTINCVLRDSNCALSSTYWYRKKSGSTNEENISKGGRYVETVNSGSKSFSLRINDLTVEDSGTYRCNVVQWPSYNNYFWCDVYGDGTAVTVN | 6.81 nM | 0.000432 s⁻¹ | 63500 M⁻¹ s⁻¹ | 4.5 nM | 0.000519 s⁻¹ | 115000 M⁻¹ s⁻¹ |  |  |  |
| Clone C variant 3 VNAR-hFc (Fc fusion, not shown: a dimerising Fc or GST) ARVDQTPQTITKETGESLTINCVLRDSNCALSSTYWYRKKSGSTNEENISKGGRYVETVNSGSKSFSLRINDLTVEDSGTYRCNVVQHPSYNNYFWCDVYGDGTAVTVN | 0.72 nM | 0.000256 s⁻¹ | 355000 M⁻¹ s⁻¹ | 0.311 nM | 0.000119 s⁻¹ | 381000 M⁻¹ s⁻¹ |  |  |  |
| Clone C variant 11 VNAR-hFc (Fc fusion, not shown: a dimerising Fc or GST) ARVDQTPQTITKETGESLTINCVLRDSNCALSSTYWYRKKSGSTNEENISKGGRYVETVNSGSKSFSLRINDLTVEDSGTYRCNVVQYPHYNNYFWCDVYGDGTAVTVN | 0.291 nM | 5.17e-05 s⁻¹ | 177000 M⁻¹ s⁻¹ | 0.472 nM | 9.01e-05 s⁻¹ | 191000 M⁻¹ s⁻¹ |  |  |  |
| Clone C variant 5 VNAR-hFc (Fc fusion, not shown: a dimerising Fc or GST) ARVDQTPQTITKETGESLTINCVLRDSNCALSSTYWYRKKSGSTNEENISKGGRYVETVNSGSKSFSLRINDLTVEDSGTYRCNVVQSPSYNNYFWCDVYGDGTAVTVN | 0.486 nM | 0.000135 s⁻¹ | 278000 M⁻¹ s⁻¹ | 0.733 nM | 0.000302 s⁻¹ | 411000 M⁻¹ s⁻¹ |  |  |  |
| Clone C variant 10 VNAR-hFc (Fc fusion, not shown: a dimerising Fc or GST) ARVDQTPQTITKETGESLTINCVLRDSNCALSSTYWYRKKSGSTNEENISKGGRYVETVNSGSKSFSLRINDLTVEDSGTYRCNVVQYPFLENYFWCDVYGDGTAVTVN |  |  |  | 2.79 nM | 0.000389 s⁻¹ | 140000 M⁻¹ s⁻¹ |  |  |  |
| Clone C variant 22 VNAR-hFc (Fc fusion, not shown: a dimerising Fc or GST) ARVDQTPQTITKETGESLTINCVLRDSNCALSSTYWYRKKSGSTNEENISKGGRYVETVNSGSKSFSLRINDLTVEDSGTYRCNVVQYPSNNNYFWCDVYGDGTAVTVN |  |  |  | 8.44 nM | 0.000627 s⁻¹ | 74200 M⁻¹ s⁻¹ |  |  |  |
| Clone C variant 14 VNAR-hFc (Fc fusion, not shown: a dimerising Fc or GST) ARVDQTPQTITKETGESLTINCVLRDSNCALSSTYWYRKKSGSTNEENISKGGRYVETVNSGSKSFSLRINDLTVEDSGTYRCNVVQYPQQDRPFWCDVYGDGTAVTVN | 6.69 nM | 0.000133 s⁻¹ | 19900 M⁻¹ s⁻¹ | 6.34 nM | 0.000156 s⁻¹ | 24500 M⁻¹ s⁻¹ |  |  |  |
| Clone C variant 7 VNAR-hFc (Fc fusion, not shown: a dimerising Fc or GST) ARVDQTPQTITKETGESLTINCVLRDSNCALSSTYWYRKKSGSTNEENISKGGRYVETVNSGSKSFSLRINDLTVEDSGTYRCNVVQWPSLSSPFWCDVYGDGTAVTVN | 0.286 nM | 3.39e-05 s⁻¹ | 119000 M⁻¹ s⁻¹ | 0.636 nM | 7.02e-05 s⁻¹ | 110000 M⁻¹ s⁻¹ |  |  |  |
| Clone H variant 6 VNAR-hFc (Fc fusion, not shown: a dimerising Fc or GST) ARVDQTPQTITKETGESLTINCVLRDSNCELSSTYWYRKKSGSTNEESISKGGRYVETVNSGSKSFSLRINDLVVEDSGTYRCNVQQFPSRNNGRYWCDVYGGGTAVTVNA |  |  |  |  |  |  | 16.5 nM | 0.000417 s⁻¹ | 25300 M⁻¹ s⁻¹ |
